Source: patent US20250129140A1, “ANTI-HCMV ANTIBODIES AND ANTIGEN-BINDING FRAGMENTS THEREOF” (ICAHN SCHOOL OF MEDICINE AT MOUNT SINAI, priority 2021, published 2025)

Experiments:
HCMV AD169R = test: Neutralization by fully human versus chimeric antibody versions; assay type: cell-based, Human cytomegalovirus; conditions: human IgG1 Fc versus mouse Fc
Protocol: Increasing concentrations of monoclonal antibodies (0.016-50 μg/mL) were incubated with AD169R (MOI 0.2) to assess neutralizing capacity. Percent infection was quantified using GFP expression at 18 hpi and normalized based on infection with virus alone (no antibody). CMV hyperimmune globulin (CytoGam®) was used as a control (trace on the upper right in FIGS. 8A, 8B, 8C, and 8D). FIG. 8A. […] FIG. 8B. Fully human (hu, comprising human variable and human constant regions) and chimeric (ms, comprising human variable and murine constant regions) versions of 9A12. FIG. 8C. Fully human (hu, comprising human variable and human constant regions) and chimeric (ms, comprising human variable and murine constant regions) versions of 13G1. FIG. 8D. Fully human (hu, comprising human variable and human constant regions) and chimeric (ms, comprising human variable and murine constant regions) versions of 14E1.
For this, the mouse Fc region of these mAbs was replaced with the human IgG1 Fc region.

[1] = test system: recombinant HCMV pentamer (strain VR1814) consisting of gH, gL, UL128, UL130 and UL131A; test: Biolayer interferometry (Octet RED) KD determination; assay type: binding, Human cytomegalovirus; conditions: for kon: association 3 minutes; for kdis: dissociation 3 minutes in PBS
Protocol: Biolayer interferometry assays were performed using the Octet RED instrument (ForteBio, Inc.) to determine the association (kon) and dissociation (kdis) constants for each antibody. Purified monoclonal antibody was loaded onto the anti-mouse Fc IgG capture (AMC) biosensors using 5-fold dilutions (50-0.016 μg/mL in PBS) for 10 minutes. To determine the kon, the sensors were exposed to the recombinant HCMV pentamer (strain VR1814) consisting of gH, gL, UL128, UL130 and UL131A (Native Antigen, CMV-PENT-100) at a constant concentration of 100 μg/mL in PBS for 3 minutes. To determine the kdis, dissociation was measured over the course of 3 minutes while the sensors were in PBS buffer. KD values were calculated as a ratio of […].
To examine this further, 293 Expi cells were transfected with wildtype gH, wildtype gL, cotransfected with gH and gL (gH+gL), transfected with a single plasmid expressing both gH and gL (gH/gL) or co-transfected a variety of gH mutants and gL. Three days post transfection the cells were harvested and stained with unlabeled primary at 0.5 μg/mL using the antibodies indicated. Transfection efficiency was determined by measuring GFP expression on day 3 and binding was determined by percent Alexa Fluor 647 positive cells using a conjugated secondary. […] The binding profile for 1G9 is most similar to 10F8. Although the ratios of gH, gL and gO plasmid were 1:1:1 it is not certain how efficiently the trimer was assembled following transfection. […] To discern minute differences in antibody binding biolayer interferometry was used, immobilizing each of the purified monoclonal antibodies (50-0.016 μg/mL) onto anti-mouse IgG Fc capture (AMC) biosensors and exposing the sensors to recombinant pentamer (100 μg/mL).

HCMV BADrUL131 = test: Dissemination / focus forming unit (FFU) assay in ARPE-19 cells; assay type: cell-based, Human cytomegalovirus
Protocol: ARPE-19 or NHDF cells were plates at 50,000 cells per well in a 24 well and infected the following day. TB40/E (MOI 0.01) and AD169RBAD^rUL131 (MOI 0.1 & 0.01) was incubated with either 10 μg/mL or 0.5 μg/mL of antibody one hour prior to addition to cells. Following a 2 hr incubation at 37° C., 5% CO2 the inoculum was removed, and cells were overlaid with 1% low melt temperature sea agarose overlay. The overlay was allowed to solidify at room temp and then 500 μL of media was added before cells were put back into the incubator. At 7 days post infection, the cells were scanned using the brightfield and GFP filters and then placed back into the tissue culture incubator until the assay was stopped by fixation and immunostaining on day 10 or 14 as indicated.
Next, a focus forming unit (FFU) assay was optimized to examine the antibodies ability to block viral replication and dissemination over multiple infection cycles. […] Once the assay was terminated at Day 10 or 14, the cells were fixed and performed immunostaining to quantify total cells by Hoechst or infection using IE1-1 as readout for infection. […] The number of FFUs was quantified per well, using 10,000 μm^2 as a cutoff for plaque area. […] Images were taken on day 7 post infection and the relative number of plaques per well was calculated compared to wells that received an irrelevant control antibody M2E10. […]

gH monomer = molecular target: T1, gH monomer (Human cytomegalovirus, UniProt Q6SW67); test: Binding to 293 Expi cells transfected with gH alone; conditions: 3 days post transfection
T1 construct: expressed in transfected cells; host or cells: 293 Expi (Expi293F) cells
Protocol: (§1) gH mutants were cloned into pcDNA 3.1 and co-transfected with gL (1:1 ratio, 6 μg plasmid total) with lipofectamine 2000 (Thermo Fisher, #11668019) into 293Expi cells (7.5×10^6). Cells were harvested 3 days post transfection and fixed before being incubated with α-gH antibodies (2 μg/mL) for 1 hr at RT. Cells were washed and then incubated in anti-mouse AF647 conjugated secondary (1:1000) in order to quantify binding. Transfection efficiency was determined using pMAX eGFP plasmid which was spiked in at 0.1 μg per well.
(§2) To examine this further, 293 Expi cells were transfected with wildtype gH, wildtype gL, cotransfected with gH and gL (gH+gL), transfected with a single plasmid expressing both gH and gL (gH/gL) or co-transfected a variety of gH mutants and gL. Three days post transfection the cells were harvested and stained with unlabeled primary at 0.5 μg/mL using the antibodies indicated. Transfection efficiency was determined by measuring GFP expression on day 3 and binding was determined by percent Alexa Fluor 647 positive cells using a conjugated secondary. […] The binding profile for 1G9 is most similar to 10F8. Although the ratios of gH, gL and gO plasmid were 1:1:1 it is not certain how efficiently the trimer was assembled following transfection. […]

gH/gL/gO trimer = molecular target: T2, gH/gL/gO trimer (Human cytomegalovirus, UniProt F5HCH8+Q6SW67, DEL177-177/E103D/E61Q/G77R); test: Binding to 293 Expi cells transfected with gH/gL/gO; conditions: 3 days post transfection
T2 construct: expressed in transfected cells; host or cells: 293 Expi (Expi293F) cells
Protocol: as §1, §2

HCMV = test: Virus neutralization, summary statements across cell types and strains; assay type: cell-based, Human cytomegalovirus; conditions: MRC5; TB40/E, AD169R, TR, Towne
Protocol: AD169R^BADrUL131, TB40E, TR, or Towne was pre-incubated with monoclonal antibodies (starting dilution of 100 μg/mL antibody) was diluted using 5 fold dilutions to achieve a final range of 50-0.016 μg/mL antibody after addition to 25 μL of media containing virus; final MOI 0.2) and incubated at 4° C. for 1 hr before the inoculum was added to the appropriate cell types (ARPE-19, HTR-svNeo, MRC5, or NHDF cells at 10,000 cells per well) for 2 hrs at 37° C., 5% CO2. Following infection, the inoculum was removed and replaced with 100 μL complete DMEM/F-12 media before an overnight incubation at 37° C., 5% CO2.
Cells were fixed using 4% paraformaldehyde (PFA) for 20 minutes at room temp. Cells were then permeabilized using 0.3% Triton X-100 (Thermo Fisher, #HFH10) in PBS and stained with an affinity-purified, polyclonal rabbit anti-IE1-1/2 (0.7 ng/ml) primary and an anti-rabbit Alexa Fluor 647 (1:1000) secondary. To quantify total cells per well, Hoechst (Molecular Probes, #H3570) was diluted 1:100,000 in PBS and incubated with cells for 20 minutes at room temp. Virus neutralization was quantified using a Celigo cytometer (Nexelcom Bioscience). Percent infection was calculated using ((#IE1-1+)/(#Hoechst+))*100 events per well and normalized to the percent infection when an irrelevant, non-neutralizing, or no antibody was used.
The student's unpaired, two tailed t tests were performed using the GraphPad Prism software (La Jolla, CA). An asterisk identifies statistical significance of P<0.05 or less.

[2] = test system: CMV TB40/E infected fibroblasts; test: SCID mouse gelfoam implant model of CMV proliferation; assay type: in vivo, SCID mice; conditions: fully human mAbs 4 or 18 mg/kg, ganciclovir 50 mg/kg; i.p. every three days; day ten; versus isotype control
Protocol: At day ten post-implantation, the cells were released from the gelfoam and DNA extracted from the cells was subjected to qPCR for the HCMV UL123 and β-actin genes. The relative CMV levels cells were determined from Ct values of qPCR analysis (in triplicate) from cells collected from three mice/treatment. Statistical tests were performed using ordinary one-way ANOVA with comparisons to isotype treated cells as a control and a Dunnett's post-test; **, p<0.01; ***, p<0.001; ****, p<0.0001.
The gelfoam was implanted subcutaneously in three mice per group. […] Treatments were administrated every three days for nine days. At day ten post-implant, the gelfoam was removed and cells were released from the gel foam by collagenase treatment. The total DNA was harvest from the cells, quantified, and subjected to qPCR for UL123 (CMV gene) and b-actin (housekeeping geen) using SYBR green to evaluate virus proliferation. The qPCR analysis was performed in triplicate from three animals to determine the Ct values for UL123 and b-actin to calculate the relative levels of CMV DNA from the gelfoam samples.

HCMV gB (U373-gB cells) = test: Flow cytometry binding to U373-gB cells; design: species or system Human cytomegalovirus

B1: 14E1 (antibody, V domains shown)
VH: QVQLVQSGAEVKKPGASVKVSCKASGYTFTSYSISWVRQAPGQGLEWMGWINTYNGNTNYAQRVQARVTMTTDTSTSTAYMELRSLRSDDTAVYYCARDHGFFFDYWGQGNLVTVSS
VL: DIQLTQSPSFLSASVGDRVTITCWASQGISSYLAWYQQKPGKAPKLLIYAASTLQSGVPSRFSGSGSGTEFTLTISSLQPEDFATYYCQQLNSYPYTFGQGTQLEIK
**Q.** How did the “IC50 / neutralizing capacity of fully human version compared to chimeric counterpart” value (HCMV AD169R) turn out when B1 was run?
**A.** The value was “improved IC50 values”.

**Q.** And the “kon” value [1]?
**A.** The value was 24400 M⁻¹ s⁻¹.

**Q.** And the “kdis” value [1]?
**A.** Its value is 0.00158 s⁻¹.

**Q.** And the “rank of binding constant within the panel” value ([1]; recombinant pentamer)?
**A.** Its value is “weakest”.

**Q.** And the “limiting viral dissemination at low concentration” value (HCMV BADrUL131)?
**A.** The value was “effective”.

B2: 9A12: anti-HCMV gH/gL monoclonal antibody, fusion 2; VH SEQ ID NO:59, VL SEQ ID NO:60; chimeric and fully human IgG1 versions (antibody, V domains shown)
VH: EVQLVESGGVLVQPGGSLRLSCAASGFTFSSHEMNWVRQAPGKGLEWISYISSTGSTIYDADSVKGRFTISRDNAKNSLYLQMNSLRAEDTAVYYCARSSGWYRNYSYGMDVWGQGTTVTVSS
VL: DIQMAQSPSSLSASVGDRVTITCRASQGIYNYLAWFQQKPGKAPKSLIYAASSLQTGVPSKFSGSGSGTDFTLTISNLQPEDFATYYCQQYNSFPRTFGQGTKVEIK
modifications: IgG1 constant regions
notes: anti-HCMV gH/gL monoclonal antibody, fusion 2; chimeric and fully human IgG1 versions
**Q.** What does the source list for B2?
**A.** IC50 / neutralizing capacity of fully human version compared to chimeric counterpart (HCMV AD169R): remained unchanged; binding to cells transfected with gH alone (gH monomer): bound; binding to cells transfected with gH/gL/gO (gH/gL/gO trimer): bound; kon [1]: 24800 M⁻¹ s⁻¹; kdis [1]: 8.6e-05 s⁻¹; neutralization of infection across all strains (HCMV): consistently neutralized infection; CMV DNA levels (UL123 relative to β-actin, qPCR) [2]: limit CMV infection and proliferation

B3: 13G1: anti-HCMV gH/gL monoclonal antibody, fusion 3; VH SEQ ID NO:38, VL SEQ ID NO:39; chimeric and fully human IgG1 versions (antibody, V domains shown)
VH: QVTLKESGPVLVKPTETLTLTCTVSGFSLYNARMGVTWIRQPPGKALEWLAHIFSNDERSYTSSLKNRLTISKDTSKSQVVLTMTNMDPVDTATYYCARIDYSNYIGNWFDPWGQGTLVTVSS
VL: DIQMTQSPSSLSASVGDRVTITCRASQSISNYLNWYQQKPGKAPKLLIYAASSLQGGVPSRFSGSGSGTDFTLTISSLQPEDFTTYYCQQSYSTPFTFGGGTKVEIK
modifications: IgG1 constant regions
notes: anti-HCMV gH/gL monoclonal antibody, fusion 3; chimeric and fully human IgG1 versions
**Q.** With B3 as the molecule, how does the “IC50 / neutralizing capacity of fully human version compared to chimeric counterpart” value (HCMV AD169R) read?
**A.** The value was “improved IC50 values”.

**Q.** And the “kon” value [1]?
**A.** The value was 12900 M⁻¹ s⁻¹.

**Q.** What about the “kdis” value [1] of the same molecule?
**A.** Its value is 6.51e-05 s⁻¹.

**Q.** And the “neutralization of infection across all strains” value (HCMV)?
**A.** The value was “consistently neutralized infection”.

**Q.** And the “CMV DNA levels (UL123 relative to β-actin, qPCR)” value [2]?
**A.** Its value is “limit CMV infection and proliferation”.

**Q.** What about the “binding to the surface of U373-gB cells” value (HCMV gB (U373-gB cells); live cells, surface) of the same molecule?
**A.** The value was “bind non-specifically”.

**Q.** And the “binding to U373-gB cells fixed and permeabilized” value (HCMV gB (U373-gB cells); permeabilized cells)?
**A.** Its value is “does not significantly bind”.
